Consider six compounds from article PMC5912162 (Bioconjugate chemistry, 2010).

In one data set the test system is KRAS2 G12D 20-mer RNA. The conditions noted are these: cited from earlier work.
A short description of data set [1]: in vivo. Conditions: mouse, iv, 2 nmol, total radioactivity, Tissue distribution.
For data set [2] the following is noted: mouse, in vivo.
Data set [3] is described as follows: in vivo. The conditions noted are these: mouse, iv, total radioactivity.
In data set [4] the test system is human CAPAN2 (G12 V) pancreatic cancer xenografts. Conditions: mouse, in vivo.

Regarding `Cc1cn(CC(=O)N(CCNC(=O)CN(CCNC(=O)CN(CCNC(=O)CN(CCNC(=O)CN(CCNC(=O)CN(CCNC(=O)CN(CCNC(=O)CN(CCNC(=O)CN(CCNC(=O)CN(CCNC(=O)COCCOCCNC(=O)COCCOCCNC(=O)[C@H](CNC(=O)COCCOCCNC(=O)CN2CCN(CC(=O)O)CCN(CC(=O)O)CCN(CC(=O)O)CC2)NC(=O)COCCOCCNC(=O)CN2CCN(CC(=O)O)CCN(CC(=O)O)CCN(CC(=O)O)CC2)C(=O)Cn2cnc3c(=O)[nH]c(N)nc32)C(=O)Cn2ccc(N)nc2=O)C(=O)Cn2ccc(N)nc2=O)C(=O)Cn2cnc3c(N)ncnc32)C(=O)Cn2cc(C)c(=O)[nH]c2=O)C(=O)Cn2ccc(N)nc2=O)C(=O)Cn2cnc3c(N)ncnc32)C(=O)Cn2cnc3c(=O)[nH]c(N)nc32)C(=O)Cn2ccc(N)nc2=O)CC(=O)NCCN(CC(=O)NCCN(CC(=O)NCCOCCOCC(=O)N[C@@H]2CSSC[C@H](C(N)=O)NC(=O)[C@@H](CCCCN)NC(=O)[C@@H](CO)NC2=O)C(=O)Cn2ccc(N)nc2=O)C(=O)Cn2ccc(N)nc2=O)c(=O)[nH]c1=O` [WT5195, (DOTA-AEEA)2-PDAP^1-AEEA2-GCCAtCAGCTCC-AEEA-D(Cys-Ser-Lys-Cys)], the Tm in the data set with KRAS2 G12D 20-mer RNA was 78.7 ± 0.6 °C. Moreover, the tissue uptake (usually the percentage of the injected dose found per gram of tissue) at 24 h in the data set “in vivo [1]” (blood) came to 0.02 ± 0.01 %ID/g; in the data set “in vivo [1]” (heart) it was 0.028 ± 0.008 %ID/g; in “in vivo [1]” (intestine), 0.048 ± 0.007 %ID/g; in the data set “in vivo [1]” (kidneys) it was 18.4 ± 1.89 %ID/g; in the data set “in vivo [1]” (liver), 0.147 ± 0.015 %ID/g; in “in vivo [1]” (lungs), 0.217 ± 0.257 %ID/g. Further, the figures for the tissue uptake at 24 h in the data set “in vivo [1]” (muscle), in the data set “in vivo [1]” (spleen) and in the data set “in vivo [1]” (tumor) were 0.038 ± 0.007 %ID/g, 0.079 ± 0.006 %ID/g and 0.135 ± 0.034 %ID/g, respectively. Besides, the “Breakdown fragments in urine” value in data set [2] is given as “not detected”. The “Free 111In (void volume peak) in urine, share of radioactivity” value in data set [2] is on record as “less than 1%”. Further, the “Intact probe peak (eluting at 9 min) in urine, share of radioactivity” value in data set [2] is listed as “more than 99%”.

Regarding “(Gd-DOTA-AEEA)2-PDAP^1-AEEA2-GCCAaCAGCTCC-AEEA-D(Cys-Ser-Lys-Cys) (disulfide) [WT5512]”, the Tm in the data set with KRAS2 G12D 20-mer RNA is 68.0 ± 1.0 °C.

As to `Cc1cn(CC(=O)N(CCNC(=O)CN(CCNC(=O)CN(CCNC(=O)CN(CCNC(=O)CN(CCNC(=O)CN(CCNC(=O)CN(CCNC(=O)CN(CCNC(=O)CN(CCNC(=O)CN(CCNC(=O)COCCOCCNC(=O)COCCOCCNC(=O)[C@H](CNC(=O)[C@H](CNC(=O)[C@H](CNC(=O)COCCOCCNC(=O)CN2CCN(CC(=O)O)CCN(CC(=O)O)CCN(CC(=O)O)CC2)NC(=O)COCCOCCNC(=O)CN2CCN(CC(=O)O)CCN(CC(=O)O)CCN(CC(=O)O)CC2)NC(=O)[C@H](CNC(=O)COCCOCCNC(=O)CN2CCN(CC(=O)O)CCN(CC(=O)O)CCN(CC(=O)O)CC2)NC(=O)COCCOCCNC(=O)CN2CCN(CC(=O)O)CCN(CC(=O)O)CCN(CC(=O)O)CC2)NC(=O)[C@H](CNC(=O)[C@H](CNC(=O)COCCOCCNC(=O)CN2CCN(CC(=O)O)CCN(CC(=O)O)CCN(CC(=O)O)CC2)NC(=O)COCCOCCNC(=O)CN2CCN(CC(=O)O)CCN(CC(=O)O)CCN(CC(=O)O)CC2)NC(=O)[C@H](CNC(=O)COCCOCCNC(=O)CN2CCN(CC(=O)O)CCN(CC(=O)O)CCN(CC(=O)O)CC2)NC(=O)COCCOCCNC(=O)CN2CCN(CC(=O)O)CCN(CC(=O)O)CCN(CC(=O)O)CC2)C(=O)Cn2cnc3c(=O)[nH]c(N)nc32)C(=O)Cn2ccc(N)nc2=O)C(=O)Cn2ccc(N)nc2=O)C(=O)Cn2cnc3c(N)ncnc32)C(=O)Cn2cc(C)c(=O)[nH]c2=O)C(=O)Cn2ccc(N)nc2=O)C(=O)Cn2cnc3c(N)ncnc32)C(=O)Cn2cnc3c(=O)[nH]c(N)nc32)C(=O)Cn2ccc(N)nc2=O)CC(=O)NCCN(CC(=O)NCCN(CC(=O)NCCOCCOCC(=O)N[C@@H]2CSSC[C@H](C(N)=O)NC(=O)[C@@H](CCCCN)NC(=O)[C@@H](CO)NC2=O)C(=O)Cn2ccc(N)nc2=O)C(=O)Cn2ccc(N)nc2=O)c(=O)[nH]c1=O` [WT8900, (DOTA-AEEA)8-PDAP^3-AEEA2-GCCAtCAGCTCC-AEEA-D(Cys-Ser-Lys-Cys)], in the data set with KRAS2 G12D 20-mer RNA, the Tm is 75.9 ± 0.5 °C. In addition, the tissue uptake at 24 h amounted to 0.018 ± 0.001 %ID/g in the data set “in vivo [1]” (blood); 0.035 ± 0.005 %ID/g in the data set “in vivo [1]” (heart); 0.048 ± 0.004 %ID/g in “in vivo [1]” (intestine); 29.6 ± 9.21 %ID/g in “in vivo [1]” (kidneys); 0.152 ± 0.012 %ID/g in the data set “in vivo [1]” (liver); 0.096 ± 0.021 %ID/g in the data set “in vivo [1]” (lungs). Moreover, the tissue uptake at 24 h in the data set “in vivo [1]” (muscle) is 0.04 ± 0.01 %ID/g; in “in vivo [1]” (spleen), 0.075 ± 0.005 %ID/g; in “in vivo [1]” (tumor), 0.143 ± 0.011 %ID/g.

On to `Cc1cn(CC(=O)N(CCNC(=O)CN(CCNC(=O)CN(CCNC(=O)CN(CCNC(=O)CN(CCNC(=O)CN(CCNC(=O)CN(CCNC(=O)CN(CCNC(=O)CN(CCNC(=O)CN(CCNC(=O)COCCOCCNC(=O)COCCOCCNC(=O)[C@H](CNC(=O)[C@H](CNC(=O)[C@H](CNC(=O)COCCOCCNC(=O)CN2CCN(CC(=O)O)CCN(CC(=O)O)CCN(CC(=O)O)CC2)NC(=O)COCCOCCNC(=O)CN2CCN(CC(=O)O)CCN(CC(=O)O)CCN(CC(=O)O)CC2)NC(=O)[C@H](CNC(=O)COCCOCCNC(=O)CN2CCN(CC(=O)O)CCN(CC(=O)O)CCN(CC(=O)O)CC2)NC(=O)COCCOCCNC(=O)CN2CCN(CC(=O)O)CCN(CC(=O)O)CCN(CC(=O)O)CC2)NC(=O)[C@H](CNC(=O)[C@H](CNC(=O)COCCOCCNC(=O)CN2CCN(CC(=O)O)CCN(CC(=O)O)CCN(CC(=O)O)CC2)NC(=O)COCCOCCNC(=O)CN2CCN(CC(=O)O)CCN(CC(=O)O)CCN(CC(=O)O)CC2)NC(=O)[C@H](CNC(=O)COCCOCCNC(=O)CN2CCN(CC(=O)O)CCN(CC(=O)O)CCN(CC(=O)O)CC2)NC(=O)COCCOCCNC(=O)CN2CCN(CC(=O)O)CCN(CC(=O)O)CCN(CC(=O)O)CC2)C(=O)Cn2cnc3c(=O)[nH]c(N)nc32)C(=O)Cn2ccc(N)nc2=O)C(=O)Cn2ccc(N)nc2=O)C(=O)Cn2cnc3c(N)ncnc32)C(=O)Cn2cnc3c(N)ncnc32)C(=O)Cn2ccc(N)nc2=O)C(=O)Cn2cnc3c(N)ncnc32)C(=O)Cn2cnc3c(=O)[nH]c(N)nc32)C(=O)Cn2ccc(N)nc2=O)CC(=O)NCCN(CC(=O)NCCN(CC(=O)NCCOCCOCC(=O)N[C@@H]2CSSC[C@H](C(N)=O)NC(=O)[C@@H](CCCCN)NC(=O)[C@@H](CO)NC2=O)C(=O)Cn2ccc(N)nc2=O)C(=O)Cn2ccc(N)nc2=O)c(=O)[nH]c1=O` [WT8910, (DOTA-AEEA)8-PDAP^3-AEEA2-GCCAaCAGCTCC-AEEA-D(Cys-Ser-Lys-Cys)], for which, in the data set on KRAS2 G12D 20-mer RNA, the Tm is 66.9 ± 0.5 °C. Also, the tissue uptake at 24 h in the data set “in vivo [1]” (blood) worked out at 0.012 ± 0.002 %ID/g; in the data set “in vivo [1]” (heart) it was 0.037 ± 0.006 %ID/g; in the data set “in vivo [1]” (intestine) it was 0.043 ± 0.006 %ID/g; in “in vivo [1]” (kidneys), 13.9 ± 2.11 %ID/g; in the data set “in vivo [1]” (liver), 0.104 ± 0.015 %ID/g; in “in vivo [1]” (lungs), 0.207 ± 0.031 %ID/g. For the same compound, the tissue uptake at 24 h amounted to 0.03 ± 0.004 %ID/g in “in vivo [1]” (muscle), 0.056 ± 0.009 %ID/g in “in vivo [1]” (spleen) and 0.113 ± 0.014 %ID/g in the data set “in vivo [1]” (tumor). In addition, the tissue to tissue ratio at 24 h in the data set “in vivo [3]” turned out to be 6.5 ± 1. Also, the “Decrease of K/T ratio by added Gdn probes” value in data set [4] was “more than 5 fold”. The “Decrease of kidney accumulation by added Gdn probes” value in data set [4] is 2 fold.

`Cc1cn(CC(=O)N(CCNC(=O)CN(CCNC(=O)CN(CCNC(=O)CN(CCNC(=O)CN(CCNC(=O)CN(CCNC(=O)CN(CCNC(=O)CN(CCNC(=O)CN(CCNC(=O)CN(CCNC(=O)COCCOCCNC(=O)COCCOCCNC(=O)[C@H](CNC(=O)COCCOCCNC(=O)CN2CCN(CC(=O)O)CCN(CC(=O)O)CCN(CC(=O)O)CC2)NC(=O)COCCOCCNC(=O)CN2CCN(CC(=O)O)CCN(CC(=O)O)CCN(CC(=O)O)CC2)C(=O)Cn2cnc3c(=O)[nH]c(N)nc32)C(=O)Cn2ccc(N)nc2=O)C(=O)Cn2ccc(N)nc2=O)C(=O)Cn2cnc3c(N)ncnc32)C(=O)Cn2cnc3c(N)ncnc32)C(=O)Cn2ccc(N)nc2=O)C(=O)Cn2cnc3c(N)ncnc32)C(=O)Cn2cnc3c(=O)[nH]c(N)nc32)C(=O)Cn2ccc(N)nc2=O)CC(=O)NCCN(CC(=O)NCCN(CC(=O)NCCOCCOCC(=O)N[C@@H]2CSSC[C@H](C(N)=O)NC(=O)[C@@H](CCCCN)NC(=O)[C@@H](CO)NC2=O)C(=O)Cn2ccc(N)nc2=O)C(=O)Cn2ccc(N)nc2=O)c(=O)[nH]c1=O` [WT5204, (DOTA-AEEA)2-PDAP^1-AEEA2-GCCAaCAGCTCC-AEEA-D(Cys-Ser-Lys-Cys)]: the Tm in the data set with KRAS2 G12D 20-mer RNA was 68.0 ± 1.2 °C. The tissue uptake at 24 h in the data set “in vivo [1]” (blood) was found to be 0.049 ± 0.005 %ID/g; in the data set “in vivo [1]” (heart), 0.042 ± 0.004 %ID/g; in the data set “in vivo [1]” (intestine), 0.079 ± 0.008 %ID/g; in the data set “in vivo [1]” (kidneys), 19 ± 2.34 %ID/g; in “in vivo [1]” (liver), 0.248 ± 0.033 %ID/g; in “in vivo [1]” (lungs), 0.093 ± 0.009 %ID/g. Moreover, the tissue uptake at 24 h in the data set “in vivo [1]” (muscle) is 0.046 ± 0.006 %ID/g; in “in vivo [1]” (spleen), 0.105 ± 0.012 %ID/g; in the data set “in vivo [1]” (tumor) it was 0.144 ± 0.014 %ID/g.

On to “(Gd-DOTA-AEEA)8-PDAP^3-AEEA2-GCCAaCAGCTCC-AEEA-D(Cys-Ser-Lys-Cys) (disulfide) [WT10144]”, for which the Tm in the data set with KRAS2 G12D 20-mer RNA was 66.8 ± 0.9 °C.
